Laboratory results from PMC9681212.

Target: Halo-HIF-1β (endogenously HaloTag-tagged HIF-1β, knock-in clone A21) (human (endogenous in 786-O)) (UniProt P27540)
Sequence (P27540 whole entry): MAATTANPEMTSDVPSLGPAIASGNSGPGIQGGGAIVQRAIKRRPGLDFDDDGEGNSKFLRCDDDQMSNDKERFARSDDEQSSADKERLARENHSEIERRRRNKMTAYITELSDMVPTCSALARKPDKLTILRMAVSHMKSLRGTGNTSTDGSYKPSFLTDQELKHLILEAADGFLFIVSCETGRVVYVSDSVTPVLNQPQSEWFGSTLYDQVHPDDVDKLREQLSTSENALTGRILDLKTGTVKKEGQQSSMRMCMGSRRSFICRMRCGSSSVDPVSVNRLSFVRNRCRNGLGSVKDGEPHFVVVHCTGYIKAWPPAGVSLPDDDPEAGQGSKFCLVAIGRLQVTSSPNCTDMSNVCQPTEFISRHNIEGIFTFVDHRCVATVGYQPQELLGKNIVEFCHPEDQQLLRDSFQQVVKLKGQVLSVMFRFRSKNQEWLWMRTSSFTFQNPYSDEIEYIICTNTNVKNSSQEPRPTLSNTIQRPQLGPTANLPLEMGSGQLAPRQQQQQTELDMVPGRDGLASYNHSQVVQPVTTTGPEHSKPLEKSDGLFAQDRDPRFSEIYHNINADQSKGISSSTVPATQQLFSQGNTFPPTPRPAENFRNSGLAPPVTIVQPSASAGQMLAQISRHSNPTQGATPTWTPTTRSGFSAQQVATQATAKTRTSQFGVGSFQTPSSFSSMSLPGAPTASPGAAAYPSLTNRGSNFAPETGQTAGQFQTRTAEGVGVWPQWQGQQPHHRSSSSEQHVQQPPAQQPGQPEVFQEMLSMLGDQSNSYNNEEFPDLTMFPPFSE

Sequence of HIF-2α N-terminally fused with 3xFLAG tag through a short peptide linker sequence (GDGAGLIN) (Q99814 whole entry, the tested form may be a part): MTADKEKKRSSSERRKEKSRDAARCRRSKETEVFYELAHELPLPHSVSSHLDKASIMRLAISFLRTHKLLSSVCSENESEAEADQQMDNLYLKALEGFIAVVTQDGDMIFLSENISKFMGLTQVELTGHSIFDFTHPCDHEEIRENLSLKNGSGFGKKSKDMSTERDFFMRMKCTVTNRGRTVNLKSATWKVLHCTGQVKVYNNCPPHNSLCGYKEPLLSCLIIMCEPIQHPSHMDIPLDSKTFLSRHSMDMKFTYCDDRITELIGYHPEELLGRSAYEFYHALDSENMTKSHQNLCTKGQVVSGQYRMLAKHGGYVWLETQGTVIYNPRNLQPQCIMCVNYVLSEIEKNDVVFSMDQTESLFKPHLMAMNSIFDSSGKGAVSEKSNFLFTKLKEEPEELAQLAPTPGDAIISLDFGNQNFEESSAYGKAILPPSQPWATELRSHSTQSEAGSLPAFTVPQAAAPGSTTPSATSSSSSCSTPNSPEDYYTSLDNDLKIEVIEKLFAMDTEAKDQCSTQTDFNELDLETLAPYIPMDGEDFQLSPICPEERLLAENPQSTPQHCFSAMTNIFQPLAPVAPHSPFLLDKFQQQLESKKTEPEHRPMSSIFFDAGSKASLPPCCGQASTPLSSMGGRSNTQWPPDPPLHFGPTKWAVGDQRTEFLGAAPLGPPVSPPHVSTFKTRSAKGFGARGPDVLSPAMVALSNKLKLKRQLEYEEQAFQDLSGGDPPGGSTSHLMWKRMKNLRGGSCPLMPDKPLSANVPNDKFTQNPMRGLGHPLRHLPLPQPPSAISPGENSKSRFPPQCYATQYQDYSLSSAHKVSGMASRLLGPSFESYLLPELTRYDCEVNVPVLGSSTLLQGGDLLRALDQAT

fSPT of endogenous Halo-HIF-1β in live 786-O KIN cells stably overexpressing HIF-2α: bound fraction of Halo-HIF-1β (diffusion coefficient <0.1 μm^2/s, presumably chromatin-bound): < 50%
Substance: HIF-2α N-terminally fused with 3xFLAG tag through a short peptide linker sequence (GDGAGLIN) (from UniProt Q99814 1-870) (natural protein)
